# Data reported in the array DNA melting data of Ke et al..
# Assay: melting temperature; melt of duplexes
# Conditions: sodium 0.0675 M; strand 1 µM
row,Substance,Tm
1,CGACGTGCGGAATGTGCTG+CAGCACATACCGCACGTCG ((((((((((.((((((((+)))))))).)))))))))),60.2 °C
2,CGACGTGCTTTATGTGCTG+CAGCACATAACGCACGTCG ((((((((.((((((((((+)))))))))).)))))))),53.6 °C
3,CGACGTGCCAAATGTGCTG+CAGCACATGGAGCACGTCG ((((((((...((((((((+))))))))...)))))))),52.4 °C
4,CGACGTGCACCATGTGCTG+CAGCACATGGTGCACGTCG (((((((((((((((((((+))))))))))))))))))),65.2 °C
5,CGACGTGCTGGATGTGCTG+CAGCACATCTGGCACGTCG ((((((((..(((((((((+)))))))))..)))))))),58.3 °C
6,CGACGTGCAAGATGTGCTG+CAGCACATTGGGCACGTCG ((((((((...((((((((+))))))))...)))))))),51.5 °C
7,CGACGTGCCATATGTGCTG+CAGCACATTTTGCACGTCG ((((((((.(.((((((((+)))))))).).)))))))),49.6 °C
8,CGACGTGCTGCATGTGCTG+CAGCACATATTGCACGTCG ((((((((...((((((((+))))))))...)))))))),49.3 °C
9,CGACGTGCATAATGTGCTG+CAGCACATTTAGCACGTCG ((((((((..(((((((((+)))))))))..)))))))),53.2 °C
10,CGACGTGCATCATGTGCTG+CAGCACATAGCGCACGTCG ((((((((...((((((((+))))))))...)))))))),48.2 °C
11,CGACGTGCGCGATGTGCTG+CAGCACATTCCGCACGTCG (((((((((..((((((((+))))))))..))))))))),54.9 °C
12,CGACGTGCAGCATGTGCTG+CAGCACATTCGGCACGTCG ((((((((.(.((((((((+)))))))).).)))))))),49.7 °C
13,CGACGTGCAACATGTGCTG+CAGCACATCGCGCACGTCG ((((((((...((((((((+))))))))...)))))))),47.7 °C
14,CGACGTGCAGCATGTGCTG+CAGCACATATGGCACGTCG ((((((((...((((((((+))))))))...)))))))),46.7 °C
15,CGACGTGCTTTATGTGCTG+CAGCACATATTGCACGTCG ((((((((..(((((((((+)))))))))..)))))))),51.2 °C
16,CGACGTGCGGTATGTGCTG+CAGCACATAGTGCACGTCG ((((((((..(((((((((+)))))))))..)))))))),53 °C
17,CGACGTGCAATATGTGCTG+CAGCACATCAGGCACGTCG ((((((((...((((((((+))))))))...)))))))),48.7 °C
18,CGACGTGCGCCATGTGCTG+CAGCACATGATGCACGTCG ((((((((..(((((((((+)))))))))..)))))))),54.9 °C
19,CGACGTGCGGTATGTGCTG+CAGCACATAACGCACGTCG (((((((((.(((((((((+))))))))).))))))))),61.4 °C
20,CGACGTGCGAGATGTGCTG+CAGCACATCTGGCACGTCG ((((((((.((((((((((+)))))))))).)))))))),59 °C
21,CGACGTGCACAATGTGCTG+CAGCACATGCGGCACGTCG ((((((((...((((((((+))))))))...)))))))),46.6 °C
22,CGACGTGCAGAATGTGCTG+CAGCACATTAGGCACGTCG ((((((((..(((((((((+)))))))))..)))))))),54.1 °C
23,CGACGTGCTCTATGTGCTG+CAGCACATACGGCACGTCG ((((((((..(((((((((+)))))))))..)))))))),49.7 °C
24,CGACGTGCGGTATGTGCTG+CAGCACATCGAGCACGTCG ((((((((...((((((((+))))))))...)))))))),54 °C
25,CGACGTGCCGCATGTGCTG+CAGCACATGTGGCACGTCG (((((((((.(((((((((+))))))))).))))))))),62.9 °C
26,CGACGTGCGAAATGTGCTG+CAGCACATAGGGCACGTCG ((((((((...((((((((+))))))))...)))))))),49.9 °C
27,CGACGTGCTGAATGTGCTG+CAGCACATGAAGCACGTCG (((((((((..((((((((+))))))))..))))))))),59.3 °C

# Assay: melting temperature; UV melt of duplexes
# Conditions: sodium 0.07 M; strand 2 µM
row,Substance,Tm
1,GTTCACGTCCGAAAGCTCGAAAAAGGATAC+GTATCCTTTTTCGAGCTTTCGGACGTGAAC ((((((((((((((((((((((((((((((+)))))))))))))))))))))))))))))),64.3 °C
2,GAGATTGTTTCCCTTTCAAA+TTTGAAAGGGAAACAATCTC ((((((((((((((((((((+)))))))))))))))))))),49.3 °C

# Same assay, conditions: sodium 0.12 M; strand 2 µM
row,Substance,Tm
1,GTTCACGTCCGAAAGCTCGAAAAAGGATAC+GTATCCTTTTTCGAGCTTTCGGACGTGAAC ((((((((((((((((((((((((((((((+)))))))))))))))))))))))))))))),68.2 °C
2,GAGATTGTTTCCCTTTCAAA+TTTGAAAGGGAAACAATCTC ((((((((((((((((((((+)))))))))))))))))))),52.8 °C

# Same assay, conditions: sodium 0.12 M; strand 7 µM
row,Substance,Tm
1,ATAAATAAAGCTTTATTTAT+ATAAATAAAGCTTTATTTAT ((((((((((((((((((((+)))))))))))))))))))),46.2 °C

# Same assay, conditions: sodium 0.22 M; strand 2 µM
row,Substance,Tm
1,GTTCACGTCCGAAAGCTCGAAAAAGGATAC+GTATCCTTTTTCGAGCTTTCGGACGTGAAC ((((((((((((((((((((((((((((((+)))))))))))))))))))))))))))))),72.1 °C
2,GAGATTGTTTCCCTTTCAAA+TTTGAAAGGGAAACAATCTC ((((((((((((((((((((+)))))))))))))))))))),57.6 °C

# Same assay, conditions: sodium 0.62 M; strand 2 µM
row,Substance,Tm
1,GTTCACGTCCGAAAGCTCGAAAAAGGATAC+GTATCCTTTTTCGAGCTTTCGGACGTGAAC ((((((((((((((((((((((((((((((+)))))))))))))))))))))))))))))),77.1 °C
2,GAGATTGTTTCCCTTTCAAA+TTTGAAAGGGAAACAATCTC ((((((((((((((((((((+)))))))))))))))))))),62.6 °C

# Same assay, conditions: sodium 1.02 M; strand 2 µM
row,Substance,Tm
1,GTTCACGTCCGAAAGCTCGAAAAAGGATAC+GTATCCTTTTTCGAGCTTTCGGACGTGAAC ((((((((((((((((((((((((((((((+)))))))))))))))))))))))))))))),78.7 °C
2,GAGATTGTTTCCCTTTCAAA+TTTGAAAGGGAAACAATCTC ((((((((((((((((((((+)))))))))))))))))))),65.3 °C
